Measured values: publication PMC5031806

Biological target: meMICU1^97-476 (human MICU1 residues 97-476, methylated in vitro by recombinant PRMT1) (human) (UniProt Q9BPX6)
Test: ITC; IML2^UCP2 (500 μM, syringe) titrated into MICU1 (40 μM, cell); VP-ITC, 25 °C; 20 mM Tris pH 7.0, 500 mM NaCl, 50 mM Arg, 2 mM BME; single site-binding model

UniProt Q9BPX6, sequence (Q9BPX6 97-476): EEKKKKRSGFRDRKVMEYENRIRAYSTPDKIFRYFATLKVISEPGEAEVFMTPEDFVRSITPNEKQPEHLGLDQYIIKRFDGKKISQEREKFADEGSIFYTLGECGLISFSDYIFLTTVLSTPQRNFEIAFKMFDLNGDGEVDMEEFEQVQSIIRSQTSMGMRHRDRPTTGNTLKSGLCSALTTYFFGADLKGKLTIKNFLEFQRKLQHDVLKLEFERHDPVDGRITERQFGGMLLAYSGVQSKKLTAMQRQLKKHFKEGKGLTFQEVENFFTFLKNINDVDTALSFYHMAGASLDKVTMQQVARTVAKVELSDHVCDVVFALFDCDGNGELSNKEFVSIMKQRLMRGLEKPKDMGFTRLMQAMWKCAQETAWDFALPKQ

Kd: 24.6 µM
Substance: IML2^UCP2 (chemically synthetized intermembrane loop 2 of UCP2) (from UniProt P55851 147-171) (peptide)
